The numbers were not newly measured in PMC7568816 (Gastroenterology Research and Practice, 2020), which cites them from elsewhere.

For the data set the following is noted: due to proteolytic cleavage by dipeptidyl peptidase IV; ref [15]. The method, then:
Endogenous GLP-2 is composed of 33 amino acids and has a short half-life of about 7 minutes due to proteolytic cleavage by dipeptidyl peptidase IV [15]. Chemical substitution of the amino acid alanine to […] at position 2 extends the half-life of GLP-2, and this molecule (teduglutide) is approved for the treatment of short bowel syndrome.

On to “Endogenous GLP-2: enteroendocrine hormone composed of 33 amino acids”, for which the half-life result is “about 7 minutes”.
